Data reported in patent US20180305449A1 (ONCOMED PHARMACEUTICALS, published 2018).
Like-named read-outs stand apart in the source and are kept apart here.

How the values were obtained:
[1] = target: T1, Recombinant human DLL4-Fc (human, UniProt Q9NR61 27-522, limits assumed); test: SPR (Biacore 2000), human DLL4-Fc on CM5 chip; ratio of KDs against 219R45-MB-21M18
T1 construct: also called hDLL4; hDLL4-Fc; not shown: Fc portion
Experimental: (§1) The KDs of parental antibodies anti-VEGF 219R45 (IgG format), anti-DLL4 21R79 (IgG format), anti-DLL4 21M18 (IgG format) and bispecific antibodies 219R45-MB-21M18 and 219R45-MB-21R79 were determined using a Biacore 2000 system from Biacore LifeSciences (GE Healthcare). Recombinant human DLL4-Fc or mouse DLL4-Fc proteins were immobilized on CM5 carboxyl chips using standard amine-based chemistry (NHS/EDC) and blocked with ethanolamine Recombinant human VEGF₁₆₅ or mouse VEGF₁₆₅ were biotinylated and immobilized on streptavidin chips. The antibodies were serially diluted 2-fold from 100 nM to 0.78 nM in HBS-P (0.01M HEPES pH7.4, 0.15M NaCl, 0.005% v/v Polysorbate 20). For each antibody, all 8 dilutions were sequentially injected over a specific chip. Kinetic data were collected over time and were fit using the simultaneous global fit equation to yield affinity constants (KD values) for each bispecific antibody.

[2] = target: T1, Recombinant human DLL4-Fc; test: SPR (Biacore 2000), human DLL4-Fc amine-coupled on CM5 chip, antibody as analyte
Experimental: as §1

[3] = target: T1, Recombinant human DLL4-Fc; test: as above; remark: listed apart in the source
Experimental: as §1
Several additional anti-DLL4 antibodies were identified that had binding affinities intermediate to the KDs of 21M18 and 21R79. Two of these anti-DLL4 antibodies were used to produce anti-VEGF/anti-DLL4 bispecific antibodies 219R45-MB-21R75 and 219R45-MB-21R83. Using the Biacore 2000 system as described above, the KDs of the bispecific antibodies 219R45-MB-21R75 and 219R45-MB-21R83 to human DLL4 were determined.

[4] = target: T2, Recombinant human VEGF165 (human, UniProt P15692-4 27-191); test: SPR (Biacore 2000), biotinylated human VEGF165 on streptavidin chip, antibody as analyte
T2 construct: also called hVEGF; hVEGF165
Experimental: as §1

[5] = target: T3, Recombinant mouse VEGF165 (mouse, UniProt Q00731-2 27-190); test: SPR (Biacore 2000), biotinylated mouse VEGF165 on streptavidin chip, antibody as analyte
T3 construct: also called mVEGF
T3 sequence (looked up): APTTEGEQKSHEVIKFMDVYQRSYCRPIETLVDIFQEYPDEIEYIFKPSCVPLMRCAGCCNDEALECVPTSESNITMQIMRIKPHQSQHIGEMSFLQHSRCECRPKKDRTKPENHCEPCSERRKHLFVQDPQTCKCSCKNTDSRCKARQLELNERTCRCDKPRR
Experimental: as §1

biotin-DLL4-hFc [6] = target: T4, biotin-DLL4-hFc (UniProt Q9NR61 27-522, limits assumed, biotinylated (site not stated)); test: Bispecific bridging ELISA (VEGF-coated plate, biotin-DLL4-hFc detection); ratio against 219R45-MB-21M18
T4 construct: not shown: human Fc (hFc)
T4 sequence (Q9NR61 27-522 limits assumed): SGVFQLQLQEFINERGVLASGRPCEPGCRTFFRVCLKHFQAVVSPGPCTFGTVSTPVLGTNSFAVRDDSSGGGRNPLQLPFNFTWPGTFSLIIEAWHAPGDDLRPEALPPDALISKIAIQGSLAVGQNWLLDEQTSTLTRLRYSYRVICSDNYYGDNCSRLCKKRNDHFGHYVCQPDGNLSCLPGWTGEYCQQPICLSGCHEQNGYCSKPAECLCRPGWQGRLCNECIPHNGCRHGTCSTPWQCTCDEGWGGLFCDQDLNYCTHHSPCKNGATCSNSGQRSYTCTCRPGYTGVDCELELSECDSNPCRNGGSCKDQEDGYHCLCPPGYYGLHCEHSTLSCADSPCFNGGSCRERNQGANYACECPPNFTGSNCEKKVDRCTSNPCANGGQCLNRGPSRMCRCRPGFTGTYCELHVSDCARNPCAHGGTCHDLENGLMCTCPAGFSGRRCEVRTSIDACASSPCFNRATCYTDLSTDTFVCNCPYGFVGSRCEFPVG
Experimental: (§2) VEGF (ATGEN, South Korea) was coated onto Nunc maxisorb plates at 2 ug/ml (100 μl/well) and incubated overnight at 2-8° C. Bispecific antibodies 219R45-MB-21M18, 219R45-MB-21R79, 219R45-MB-21R75, and 219R45-MB-21R83 were diluted in blocking buffer (lx PBS, 0.1% gelatin, 0.1% Polysorbate-20, pH 7.4) containing 2 μg/ml biotin-DLL4-hFc. The antibodies were serially diluted 3-fold from 500 ng/ml to 0.008 ng/ml. The antibody samples were incubated for 2 hours in blocking buffer containing the biotin-DLL4-hFc. After incubation, the antibody samples were transferred to the VEGF-coated assay plate (100 ul/well) and incubated for 2 hours. Streptavidin-HRP (Jackson ImmunoResearch, West Grove, Pa.) was added to each well and incubated for 1 hr. TMB substrate was added to the wells with a 10 minute color development and the reaction was stopped with 2M sulfuric acid. Absorbance was read at 450-650 nm and the data analyzed using the 4-parameter fit within the Softmax Pro analysis program (Molecular Devices, Sunnyvale, Calif.).

biotin-DLL4-hFc [7] = target: T4, biotin-DLL4-hFc; test: bispecific sandwich ELISA: antibody pre-incubated with 2 ug/ml biotin-DLL4-hFc, captured on VEGF-coated plate, detected with streptavidin-HRP
Experimental: FIG. 7. Bispecific antibody ELISA. Bispecific antibodies 219R45-MB-21M18, 219R45-MB-21R79, 219R45-MB-21R75, and 219R45-MB-21R83 were diluted in blocking buffer (lx PBS, 0.1% gelatin, 0.1% Polysorbate-20, pH 7.4) containing 2 μg/ml biotin-DLL4-hFc. The antibodies were serially diluted 3-fold from 500 ng/ml to 0.008 ng/ml. The antibody samples were incubated for 2 hours in blocking buffer containing the biotin-DLL4-hFc. After incubation, the antibody samples were transferred to a VEGF-coated assay plate (100 ul/well) and incubated for 2 hours. Streptavidin-HRP was added to each well and incubated for 1 hr. TMB substrate was added to the wells with a 10 minute color development and the reaction was stopped with 2M sulfuric acid. Absorbance was read at 450-650 nm and the data analyzed using the 4-parameter fit within the Softmax Pro analysis program.
as §2

biotin-DLL4-hFc [8] = target: T4, biotin-DLL4-hFc; test: Bispecific bridging ELISA: antibody pre-incubated with biotin-DLL4-hFc, captured on VEGF (ATGEN)-coated plate, streptavidin-HRP; potency relative to a reference anti-VEGF/anti-DLL4 bispecific antibody
Experimental: as §2

T1 sequence (Q9NR61 27-522 limits assumed): as above

- fold stronger binding than 219R45-MB-21M18 [1]: ~30 fold
- Kd [2]: 0.53 nM
- Kd [3]: 0.53 nM
- Kd [4]: 0.68 nM
- Kd [5]: 12.5 nM
- fold more potent than 219R45-MB-21M18 (biotin-DLL4-hFc [6]): ~7 fold
- EC50 (read off the curve) (biotin-DLL4-hFc [7]): ~0.6 ng/mL
- Relative Potency (%) (biotin-DLL4-hFc [8]): 501%
B1: anti-VEGF/anti-DLL4 bispecific antibody 219R45-MB-21R79 (bispecific antibody, human IgG2)
heavy 1: QVQLVQSGAEVKKPGASVKVSCKASGYTFTNYWMHWVRQAPGQGLEWMGDINPSNGRTSYKEKFKRRVTLSVDKSSSTAYMELSSLRSEDTAVYFCTIHYDDKYYPLMDYWGQGTLVTVSSASTKGPSVFPLAPCSRSTSESTAALGCLVKDYFPEPVTVSWNSGALTSGVHTFPAVLQSSGLYSLSSVVTVPSSNFGTQTYTCNVDHKPSNTKVDKTVERKCCVECPPCPAPPVAGPSVFLFPPKPKDTLMISRTPEVTCVVVDVSHEDPEVQFNWYVDGVEVHNAKTKPREEQFNSTFRVVSVLTVVHQDWLNGKEYKCKVSNKGLPAPIEKTISKTKGQPREPQVYTLPPSREKMTKNQVSLTCLVKGFYPSDIAVEWESNGQPENNYKTTPPMLKSDGSFFLYSKLTVDKSRWQQGNVFSCSVMHEALHNHYTQKSLSLSPGK
heavy 2: QVQLVQSGAEVKKPGASVKISCKASGYSFTAYYIHWVKQAPGQGLEWIGYIANYNRATNYNQKFKGRVTFTTDTSTSTAYMELRSLRSDDTAVYYCARDYDYDVGMDYWGQGTLVTVSSASTKGPSVFPLAPCSRSTSESTAALGCLVKDYFPEPVTVSWNSGALTSGVHTFPAVLQSSGLYSLSSVVTVPSSNFGTQTYTCNVDHKPSNTKVDKTVERKCCVECPPCPAPPVAGPSVFLFPPKPKDTLMISRTPEVTCVVVDVSHEDPEVQFNWYVDGVEVHNAKTKPREEQFNSTFRVVSVLTVVHQDWLNGKEYKCKVSNKGLPAPIEKTISKTKGQPREPQVYTLPPSREEMTKNQVSLTCLVEGFYPSDIAVEWESNGQPENNYKTTPPMLDSDGSFFLYSELTVDKSRWQQGNVFSCSVMHEALHNHYTQKSLSLSPGK
light: DIVMTQSPDSLAVSLGERATISCRASESVDNYGISFMKWFQQKPGQPPKLLIYAASNQGSGVPDRFSGSGSGTDFTLTISSLQAEDVAVYYCQQSKEVPWTFGGGTKVEIKRTVAAPSVIFPPSDEQLKSGTASVVCLLNNFYPREAKVQWKVDNALQSGNSQESVTEQDSKDSTYSLSSTLTLSKADYEKHKVYACEVTHQGLSSPVTKSFNRGEC
notes: Monovalent/bispecific IgG2 heterodimer with charge-modified CH3 domains and two identical light chains
